In patent publication US8491890:

Target: Fas (CD95, APO-1) on mouse microglia (mouse) (UniProt P25446)
Assay: cell-based or functional assay

UniProt P25446, sequence (P25446 22-327): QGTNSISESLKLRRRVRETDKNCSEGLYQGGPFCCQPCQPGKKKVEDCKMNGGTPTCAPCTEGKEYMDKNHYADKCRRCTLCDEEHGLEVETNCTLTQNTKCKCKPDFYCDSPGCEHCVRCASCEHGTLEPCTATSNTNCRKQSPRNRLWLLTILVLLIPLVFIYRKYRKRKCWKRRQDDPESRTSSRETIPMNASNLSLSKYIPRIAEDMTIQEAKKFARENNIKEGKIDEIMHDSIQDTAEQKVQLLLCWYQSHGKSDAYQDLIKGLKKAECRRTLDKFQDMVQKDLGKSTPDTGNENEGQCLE

Fas ligand (FasL) on mouse Treg and Teff (from UniProt P41047 1-279)
decrease of CB expression in Teff-treated cultures on blocking of FasL interactions (flow cytometry): 4.8%
decrease of CB protein expression in Treg-treated microglia on neutralization of FasL (flow cytometry): 40.2%
